Numbering of substitutions follows the chain as printed.
T1: CD123 Protein, His Tag, Acro Biosciences Cat. No. ILA-H52H6 (Homo sapiens (Human), UniProt P26951 19-305)
T1 construct: Bought protein; not shown: His tag
T1 sequence: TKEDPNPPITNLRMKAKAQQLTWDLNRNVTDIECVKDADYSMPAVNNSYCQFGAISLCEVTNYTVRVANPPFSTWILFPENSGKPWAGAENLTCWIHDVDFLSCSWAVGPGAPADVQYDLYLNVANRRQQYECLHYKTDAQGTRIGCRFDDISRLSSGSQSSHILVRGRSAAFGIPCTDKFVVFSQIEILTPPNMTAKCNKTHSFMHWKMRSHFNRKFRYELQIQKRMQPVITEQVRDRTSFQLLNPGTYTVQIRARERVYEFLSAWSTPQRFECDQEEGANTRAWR

B1: MYT1417 (antibody, V domains shown)
VH: QVQLVQSGAEVKKPGASVKMSCKASGYTHTDYYMKWVKQAPGQGLEWIGDIIPSNGATFYNQKFKGKATLTVDRSISTAYMHLNRLRSDDTAVYYCTRSHLLRASWFAYWGQGTLVTVSS
VL: DFVMTQSPDSLAVSLGERATINCKSSQSLLNSGNQKNYLTWYLQKPGQPPKLLIYWASTRESGVPDRFSGSGSGTDFTLTISSLQAEDVAVYYCQNDYSYPYTFGQGTKLEIK
notes: IgG
B2: MYT1435 (antibody, V domains shown)
VH: B1 VH with H29F, N61H
VL: B1 VL
notes: IgG
B3: MYT1439 (antibody, V domains shown)
VH: B1 VH with H29F, K65H
VL: B1 VL
notes: IgG
B4: MYT1445 (antibody, V domains shown)
VH: B1 VH with H29F, L101H
VL: B1 VL
notes: IgG
B5: MYT1448 (antibody, V domains shown)
VH: B1 VH with H29F, A104H
VL: B1 VL
notes: IgG
B6: MYT1442 (antibody, V domains shown)
VH: B1 VH with H29F, R98H
VL: B1 VL
notes: IgG
B7: MYT1449 (antibody, V domains shown)
VH: B1 VH with H29F, S105H
VL: B1 VL
notes: IgG
B8: MYT1434 (antibody, V domains shown)
VH: B1 VH with H29F, Y60H
VL: B1 VL
notes: IgG
B9: MYT1425 (antibody, V domains shown)
VH: B1 VH with H29F, I51H
VL: B1 VL
notes: IgG
B10: MYT1452 (antibody, V domains shown)
VH: B1 VH with H29F, A108H
VL: B1 VL
notes: IgG
B11: MYT1437 (antibody, V domains shown)
VH: B1 VH with H29F, K63H
VL: B1 VL
notes: IgG
B12: MYT1444 (antibody, V domains shown)
VH: B1 VH with H29F, H100A
VL: B1 VL
notes: IgG
B13: MYT1430 (antibody, V domains shown)
VH: B1 VH with H29F, G56H
VL: B1 VL
notes: IgG
B14: MYT1436 (antibody, V domains shown)
VH: B1 VH with H29F, Q62H
VL: B1 VL
notes: IgG
B15: MYT1424 (antibody, V domains shown)
VH: B1 VH with H29F, D50H
VL: B1 VL
notes: IgG
B16: MYT1432 (antibody, V domains shown)
VH: B1 VH with H29F, T58H
VL: B1 VL
notes: IgG
B17: MYT1453 (antibody, V domains shown)
VH: B1 VH with H29F, Y109H
VL: B1 VL
notes: IgG
B18: MYT1440 (antibody, V domains shown)
VH: B1 VH with H29F, G66H
VL: B1 VL
notes: IgG
B19: MYT1446 (antibody, V domains shown)
VH: B1 VH with H29F, L102H
VL: B1 VL
notes: IgG
B20: MYT1429 (antibody, V domains shown)
VH: B1 VH with H29F, N55H
VL: B1 VL
notes: IgG
B21: MYT1441 (antibody, V domains shown)
VH: B1 VH with H29F, T97H
VL: B1 VL
notes: IgG
B22: MYT1427 (antibody, V domains shown)
VH: B1 VH with H29F, P53H
VL: B1 VL
notes: IgG
B23: MYT1431 (antibody, V domains shown)
VH: B1 VH with H29F, A57H
VL: B1 VL
notes: IgG
B24: MYT1443 (antibody, V domains shown)
VH: B1 VH with H29F, S99H
VL: B1 VL
notes: IgG
B25: MYT1428 (antibody, V domains shown)
VH: B1 VH with H29F, S54H
VL: B1 VL
notes: IgG
B26: MYT1426 (antibody, V domains shown)
VH: B1 VH with H29F, I52H
VL: B1 VL
notes: IgG
B27: MYT1451 (antibody, V domains shown)
VH: B1 VH with H29F, F107H
VL: B1 VL
notes: IgG
B28: MYT1438 (antibody, V domains shown)
VH: B1 VH with H29F, F64H
VL: B1 VL
notes: IgG
B29: MYT1433 (antibody, V domains shown)
VH: B1 VH with H29F, F59H
VL: B1 VL
notes: IgG
B30: MYT1281 (antibody, V domains shown)
VH: QVQLVQSGAEVKKPGASVKVSCKASGYIFTSSIMHWVRQAPGQGLEWIGYIKPYNDGTKYNEKFKGRATLTSDRSTSTAYMELSSLRSEDTAVYYCARHGGNDYYDTMDYWGQGTLVTVSS
VL: DIQMTQSPSSLSASVGDRVTITCRASQDINSYLSWFQQKPGKAPKTLIYRVNRLVDGVPSRFSGSGSGNDYTLTISSLQPEDFATYYCLQYDAFPYTFGQGTKVEIK
notes: IgG

What was measured:
[1] = target: T1, CD123 Protein, His Tag, Acro …; test: BLI, IgG on anti-human Fc sensor, pH 7.4 and pH 5.4
[2] = target: T1, CD123 Protein, His Tag, Acro …; test: BLI, IgG on anti-human Fc sensor, 50 nM CD123, pH 7.4 and pH 5.4
How it was run: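 Single His/Ala heavy-chain CDR variants were expressed in Expi293 and captured from diluted supernatant on anti-human Fc sensors. By BLI, association with 50 nM His-tagged CD123 ran for 120 s and dissociation for 300–600 s, all in PBST pH 7.4. The full cycle was repeated separately in PBST pH 5.4.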

Row | Binder | binding result [1] | binding result [2]
1 | B1 | no binding (tested: 50 nM) | –
2 | B2 | – | binds
3 | B3 | – | binds
4 | B4 | – | binds
5 | B5 | – | binds
6 | B6 | – | binds
7 | B7 | – | binds
8 | B8 | – | binds
9 | B9 | no binding (tested: 50 nM) | –
10 | B10 | – | binds
11 | B11 | – | binds
12 | B12 | no binding (tested: 50 nM) | –
13 | B13 | – | binds
14 | B14 | – | binds
15 | B15 | no binding (tested: 50 nM) | –
16 | B16 | – | binds
17 | B17 | – | binds
18 | B18 | – | binds
19 | B19 | – | binds
20 | B20 | – | binds
21 | B21 | no binding (tested: 50 nM) | –
22 | B22 | no binding (tested: 50 nM) | –
23 | B23 | – | binds
24 | B24 | no binding (tested: 50 nM) | –
25 | B25 | – | binds
26 | B26 | – | binds
27 | B27 | – | binds
28 | B28 | – | binds
29 | B29 | – | binds
30 | B30 | no binding (tested: 50 nM) | –

From patent US20220306751A1 (MYTHIC THERAPEUTICS, published 2022)
